Results taken from publication PMC6075789, “Comparative proteomics of the two T. brucei PABPs suggests that PABP2 controls bulk mRNA” (PLoS Neglected Tropical Diseases, 2018).
Where two headings read alike, the source gives them in different places.

T1: G1-IP2 eYFP fusion protein (T. brucei, UniProt Q387L6 1-435)
T1 construct: The methods say N-terminal eYFP for all proteins but RBP23; the results print the label G1-IP2-eYFP; source: T. brucei procyclic Lister 427, expressed from the endogenous locus, in lysate of cryomilled cells; not shown: eYFP, N-terminal, kept
T1 sequence (looked up): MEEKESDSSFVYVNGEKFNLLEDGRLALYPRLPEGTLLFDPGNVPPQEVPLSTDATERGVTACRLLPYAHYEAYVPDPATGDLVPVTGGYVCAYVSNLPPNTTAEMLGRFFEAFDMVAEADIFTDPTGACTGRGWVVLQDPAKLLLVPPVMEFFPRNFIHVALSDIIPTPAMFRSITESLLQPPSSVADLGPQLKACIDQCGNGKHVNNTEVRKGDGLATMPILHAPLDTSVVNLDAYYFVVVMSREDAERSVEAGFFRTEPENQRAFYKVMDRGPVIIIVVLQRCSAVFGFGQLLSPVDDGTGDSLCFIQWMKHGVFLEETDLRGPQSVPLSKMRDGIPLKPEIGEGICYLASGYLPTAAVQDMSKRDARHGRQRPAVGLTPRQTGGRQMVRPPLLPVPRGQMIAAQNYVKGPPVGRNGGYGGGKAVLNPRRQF

B1: PABP1-4Ty1 (natural protein, T. brucei, UniProt Q38E63 1-566, looked up)
chain: MTIAAQGVPSGPSATKPLQVASLYVGDLDPAINEPQLVDIFKPYGTILNVRVCRDIITQRSLGYGYVNYDDVNSASKAMEELNFKRVGEKCIRIMWQQRDPALRYSGSGNIFVKNLKEEVDSRELSLIFKKFGEILSCKVMDDESGKSRGYGFVHFKDDDAAKAAIEKMNGDKEHADADKAALYVANFIRRNARLAALVANFTNVYIKQLLPTVDKDVIEKFFSKFGGITSAAICKDKNGRAFAFCNFEKHDDAVKAIEASHDQEVEGVTQPGEKLYVQRAQPRSERLIALRQKYMQCQSLGNNLYVRNFDAEFTEKDLNELFKEYGVIRSCRVMTDANGISRGFGFVSFENADQANAALREMNGRMLNGKPLVVNIAQRRDQRLTMLKLQLQQRLQMMMHHMHPPPFGMPGHPLQRRNARSGGRGNRPHPRQQQPQPQPEPQPPLATTVPPAAAHSVMFTAPSMGFSAVPRTPQASPAIAPDTPPLPPISAEDLQQMSVDEQRAALGDRLYIKVHELAPDHAPKITGMFLEMNPKEALALLSNPKLMHEKVTEALCVLKVHASSA
notes: also called PABP-Ty1; source: T. brucei procyclic Lister 427, expressed from the endogenous locus, in lysate of cryomilled cells

Tests used:
[1] = biological target: eIF4E4 eYFP fusion protein (T. brucei); test: co-IP; eYFP fusion of eIF4E4 or G1-IP2 precipitated from cryomilled powder in low salt buffer with anti-GFP nanobody LaG16-LaG2 on magnetic beads; co-precipitated PABP-4Ty1 detected by western blot with anti-Ty1 (BB2); enrichment against beads without antibody, two replicates
[2] = biological target: T1, G1-IP2 eYFP fusion protein; test: as above

| Molecule | enrichment ratio against control beads without antibody [1] [fold] | enrichment ratio against control beads without antibody [2] [fold] | enrichment ratio against control beads without antibody ([2]; partners not purified) [fold] |
| --- | --- | --- | --- |
| PABP2-4Ty1 (natural protein) | 3 | 19 | – |
| B1 | 64 | – | 4 |
